In the DeepSol protein solubility set:

Test: soluble on expression in E. coli; label from the status in PepcDB or PDB records

Row | Sequence | soluble on expression in E. coli
1 | MSYQGRARKFLESASIDVGDMVLVEKPDVTYEGMVLDRADDADDRHIVLKLENGYNIGVEISDARIELLEKGSEPRIELPPVEAAEDPELPDVSIISTGGTVASIIDYRTGAVHPAFTADDLLRANPELLDIANIRGRAVFNILSENMKPEYWVETARAVYGEIKDGADGVVVAHGTDTMHYTSAALSFMLRTPVPVVFTGAQRSSDRPSSDASLNIQCSVRAATSEIAEVTVCMHATMDDLSCHLHRGVKVRKMHTSRRDTFRSMNALPLAEVTPDGIKILEENYRKRGSDELELSDRVEERVAFIKSYPGISPDIIKWHLDEGYRGIVIEGTGLGHCPDTLIPVIGEAHDMGVPVAMTSQCLNGRVNMNVYSTGRRLLQAGVIPCDDMLPEVAYVKMCWVLGQTDDPEMAREMMRENIAGEINERTSIAYFRG | soluble
2 | MKNRIIAAGVIAASILSYSSSSFAQTKTFPDVQTGHWAEDSINYLAEKGAVTGNEKGMFEPGKEITRAEAATMMAKILNLPIDKNAKPSYADSQKHWATPIIAAVEKAGVVKGTGNGFEPDGKIDRVSMASLLVEAYKLESKVNGTPATKFKDLETLNWGKEKANILVELGISVGTGDKWEPKKILTKAEAAQFIKKADSLKVGNPLVEKVVIIDPGHGGFDPGNPGQGVEESKIVFDTSLRLQKLLEKNTPLKALLTREENGNPGSNKNESLANRVKFGQENNADIFVSIHANSSEKHDGHGTETYYYKKSKRGEETQIEKDSEVLAKKIQNRVVEALHTRDRKIKDDHSLYVVNNNTVPAVLTELAFIDNDIDNGKLATESGRQIAAEAVYAGILDYYEWKGFDVSKYRLAK | not soluble
3 | MTRTVSMSTAINEAMKISMRRDENVILIGEDVAGGAQVDHLQDDEAWGGVLGVTKGLVQEFGRNRILDTPISEAGYMGAAMAAAATGLRPIAELMFNDFIGSCLDQVLNQGAKFRYMFGGKAKVPVTVRTMHGAGFSAAAQHSQSLYALFTSIPGIKVVVPSTPYDAKGLLLAAIEDDDPVIFFEDKTLYNMKGEVPEGYYTIPLGKADIKREGSDVTIVAIGKQVHTALAAAEQLAKKGLEVEVIDPRSLSPLDEDTILSSVEKTNRLIVIDEANPRCSIATDIAAIVADRGFDLLDAPIKRITAPHTPVPFSPPLEKLYLPTPEKVIETVSEMIGDQSLLHV | not soluble
4 | MTVSTPEQHEQRASHDASEGKHNVCQGRLAALADAAVSEKLGALPGWQLLDMRLSRAFQCTNFDQSIDFMNRVASIANDINHHPDIAVLDKRSVRVTAWTRKLGYLTDIDFDLAASVEAMYATEFADRPAR | soluble
5 | GNYHVTLQASYIAKNVEDVEDAIGVAISQIGKLLNKGSLDYVDIDVGLTICPKCGEPIDCVLVVAKTAIVGILLSMKVFNAESPEHAVRIAKSSIGRALKDIP | not soluble
6 | GNFYAVRKGRETGIYNTWNECKNQVDGYGGAIYKKFNSYEQAKSFLG | soluble
7 | MSDGFSVDPAELEGFAGVAEGHAGTAGQIKGLVDRADVGDKSWGVVGLFVKSTYTGMLGDLKELFGDLEEGLRGVGERFRATAEDYRGPEEAIQRAFDGIDTGSGGR | not soluble
8 | MAEYSMKELIEWNEKIEEIARAEGLDYYEQEFEICSYEDMIAYETYVGMPSHYPHWSYGKNYERIKTLYKYNLTGLPYEMVINSDPCIAYLMKDNTLLLQILTMAHVYGHNDFFKNNRLFKLGTRAKDTVDMFKNHADRIREYIQDPGIGYAKVEKILNAAHAIRYQISRNIGVRVLSQEEKKKELLERYNKPKSEYPLLEPKSKEEEAPPDFKKIPVEPEEDMLLFFMNYSKLTDWERDILSIVREETLYFLPQIETKIMNEGWASFWHYNILNKLNLEQGLHFEFLKRHNQVIRPVLGQLNPYYIGFRIFEDLKKRYEDDPKKIFEVREVERDQSFIRRYLTRELCEEMNLFEYAKIGNSYIVTEVSDEEGWKKIRDTIANNVGLAGIPVIKVAEWVQKDNTLVLEHEYDGREIELSYAYETMKHIVDLWDGKVMLGTVIDNKKKIIVCNEQKKVTLTDG | not soluble
9 | MSLSELINNREKRVQTLKEIILHLHRGEAPAAVRGRLAALIADVDASEVAAMEQELMAEGMSHQEVQSLCDLHADVLQDVMTRPATPMPLAPGHPVHQLRAENRALGAAAQTARQRVRELAALADEGRFDAERVEALRAFEVLWEVDRHYQRKEHLVFSVLERHGTTGPSKVMWGKDDEVRDLLKASLAALGEEGVSGAELKVVAETVLEPALSALEGMIYKEENILLPMTLGLFTAEDWGEIFRQSPEYGWCLVQPGTGYRPPEPRPVTDAVKLPPAQAVQFPSGTLSFEQLLGLFQALPVDLTFVDRDDRVAFFSEGPDRVFARSRAVIGREVKHCHPPKSVHVVERIVEDFKAGRQSVAEFWIDLHGRFVHIRYFAVRDAAGAYLGTLEVTQDLTRLRALEGERRLLAYDAGPAHDPITREGHHHHHH | soluble
10 | SYYHHHHHHLESTSLYKKAGLMSTPLQGIKVLDFTGVQSGPSCTQMLAWFGADVIKIERPGVGDVTRHQLRDIPDIDALYFTMLNSNKRSIELNTKTAEGKEVMEKLIREADILVENFHPGAIDHMGFTWEHIQEINPRLIFGSIKGFDECSPYVNVKAYENVAQAAGGAASTTGFWDGPPLVSAAALGDSNTGMHLLIGLLAALLHREKTGRGQRVTMSMQDAVLNLCRVKLRDQQRLDKLGYLEEYPQYPNGTFGDAVPRGGNAGGGGQPGWILKCKGWETDPNAYIYFTIQEQNWENTCKAIGKPEWITDPAYSTAHARQPHIFDIFAEIEKYTVTIDKHEAVAYLTQFDIPCAPVLSMKEISLDPSLRQSGSVVEVEQPLRGKYLTVGCPMKFSAFTPDIKAAPLLGEHTAAVLQELGYSDDEIAAMKQNHAI | soluble
11 | MSTRPTTDKVKEAIFNMIGPYFSGGNGLDLFAGSGGLGIEALSRGIERVIFVDHDRKAVQTVRKNVAACGLEKRAEIYCNDAERALKAVAKRGLRFAVIFLDPPYKEKQWPTLLSSIVERQLLEPHGVVVAEHSAEAELPEEVGGLTRWKRETYGITGVTIYRWEGDGSDGEHCGLPREL | not soluble
12 | MGSDKIHHHHHHMLTVLLLAGAEKLINMAIASDEITKAGLVPLAGKVLRLNMGTPDVNLDVLFTQERLRFEPVTTESVFEQSGTMNERQKASLERGRLGHSRPDCIITVANPAQLLNLMRGTEGNLPIEGDYKVLMQLNQLVAGFDPDVAGQLEPFIGKPMASQLHLLISQLKGSWRHSAKRAFNDVSDWANDVAGNVTPDTSEAAEVNVLKQQLLKLRADVEREEARLAAIKDEQARLTNSR | not soluble
13 | MVKQISVFVENKPGRLAAVTEVLMKHNINIRAFTIADAGDFGIIRMVVDKTDEAYQALKEAGFTVRLTNVLAVEVEDKPGALHRIAKALGDAGVNIDYVYAFTSEKHKALIIFRVDDREKAKEVLEKLGVLFKGEIN | not soluble
14 | MGSDKIHHHHHHMSVFLRNAWYMACWSHEVPEGGFLARRLLDKPWVIWRKADGTPVIMADRCPHRFVPLSRGQRDGDMMRCGYHGLAFSSSGGCVHNPFTDEALPLARVEVLPVVEKHTGLWFWPGDADRADPALIPDFGFLDVERPLHRGHLKMDAGYELVTDNLMDLSHAEFIHRDSFGVNGSLLTCGQHEVVQDEGGAIWNNWTMPDSEPPSWAVAMLPEGARTDQWLHMRWNAPSCLALFLGLARSGTDRKDMVVPPMADPHILTPETVTSTHYFYTHEPTPEAHALLEKAFLEEDHPMLHAQQEAMGSADFWDLRPVVLPSDAGAIRVRRRMMQLRRAEAGLEEEAAA | not soluble
15 | MRPPLIERYRNLLPVSEKTPVISLLEGSTPLIPLKGPEEARKKGIRLYAKYEGLNPTGSFKDRGMTLAVSKAVEGGAQAVACASTGNTAASAAAYAARAGILAIVVLPAGYVALGKVAQSLVHGARIVQVEGNFDDALRLTQKLTEAFPVALVNSVNPHRLEGQKTLAFEVVDELGDAPHYHALPVGNAGNITAHWMGYKAYHALGKAKRLPRMLGFQAAGAAPLVLGRPVERPETLATAIRIGNPASWQGAVRAKEESGGVIEAVTDEEILFAYRYLAREEGIFCEPASAAAMAGVFKLLREGRLEPESTVVLTLTGHGLKDPATAERVAELPPPVPARLEAVAAAAGLL | soluble
16 | MDFNLNDEQELFVAGIRELMASENWEAYFAECDRDSVYPERFVKALADMGIDSLLIPEEHGGLDAGFVTLAAVWMELGRLGAPTYVLYQLPGGFNTFLREGTQEQIDKIMAFRGTGKQMWNSAITEPGAGSDVGSLKTTYTRRNGKIYLNGSKCFITSSAYTPYIVVMARDGASPDKPVYTEWFVDMSKPGIKVTKLEKLGLRMDSCCEITFDDVELDEKDMFGREGNGFNRVKEEFDHERFLVALTNYGTAMCAFEDAARYANQRVQFGEAIGRFQLIQEKFAHMAIKLNSMKNMLYEAAWKADNGTITSGDAAMCKYFCANAAFEVVDSAMQVLGGVGIAGNHRISRFWRDLRVDRVSGGSDEMQILTLGRAVLKQYR | soluble
17 | MGSDKIHHHHHHMTQTDSLPGVQATVQDMGERARRAARVLRSLPTGRKVQALRALAAELRAREAGILAANAQDVQAAEAAGLPAPLVDRLRLSAGALAAIARDVEAVAALPDPVGEQTDEKTLPSGIRVSQRRVPLGVLGVIYESRPNVTVDVAALALMSGNAAILRGGKETVNSNAALEDAIHAALNREGLPADAVQVIRDPDRARMLELLRLDESVDAIIPRGGAGLHRFCVENATVPVIVGGIGVVHIYLDGSFVQTPQDVQIAAALIRNAKTQKPSACNALDTLLIDRAALAALPDVVRPLLESGVEVRADAEAQAALAGAGLNVTSAQLGDYGTEFLALVASLRTVSGLDEALDFIAERGGHTDVILTRDPAQAERFVQDVDSAAVMVNVSPRFNDGGQLGLGAEVAISTQKLHARGPMGLRELTTSKWVVRGEGQVRD | not soluble
18 | MLRVVEVCWRESHMKVLAINSSPRMDKGNTALILNPFLEGMKEAGAEVELFYTKKLKISPCTGEFNCWLKTPGKCYQNDDMNILYPRIDAADVIVFATPVYVDGVTGQMKNFIDRMLPRVEPFVELRDGHCRHPVRGGPKALKFVLVSNCGFWEMDNFDSLLVFMKAFCKNASTEFAGALLRPHGEALSSMLEMGAPIDDVFEAAREVGRQLVKEGKMSQETLDIVSRELLPKEMYIQIANQTFRQCLESLDRLEHHHHHH | not soluble
19 | MQRETGSERVDVDMEKPGMISRWYDDKGFGFILPKTGGEEVFLHISAFRGDRRPRQGDQVWFLASQDAQGRLRAERARLDALTIDPPTVRRGAQAPVTRAQARPAPTPPSALQRPLA | not soluble
20 | MLSKRIVTALNTAVKVQNAGIATTARGMAGASGSEVSKILEERILGTETGINLEETGKVLSIGDGIARVYGLKNIQAEEMVEFDSGIKGMAMNLDVDNVGVVVFGNDKVIREGDIVKRTGAIVDVPVGDGLLGRVVDALGNPIDGKGPIANARRSRVEVKAPGIIPRLSVREPMVTGVKAVDSLVPIGRGQRELIIGDRQTGKTAIAIDTIINQKRFNDAGDDKKKLFCIYVAVGQKRSTVAQIVKRLTDAGAMDYTIVVSATASDAAPLQFLAPYSGCAMGEHFRDNGKHALIIFDDLSKQAVAYRQMSLLLRRPPGREAYPGDVFYLHSRLLERAAKMNNSLGGGSLTALPVIETQAGDVSAYIPTNVISITDGQIFLETELFYKGVRPAINVGLSVSRVGSAAQTKAMKQVAGSMKLELAQYREVAAFAQFGSDLDASTQQLLNRGVRLTELLKQGQYVPMGIEEQVGVIYAGVKGYLDKVDPSAITKFEKEFLAHLRSSQQALLKTIREEGQISPQTDAQLKDVVVNFLATFKP | not soluble
